# Measured values from patent US20120040474A1 (published 2012).
# Where a chain is given by its changes, count along the chain named. In names and notes the source's numbering stands.
# T1: denatured glycoprotein RNase B, P61823
# T1 chain: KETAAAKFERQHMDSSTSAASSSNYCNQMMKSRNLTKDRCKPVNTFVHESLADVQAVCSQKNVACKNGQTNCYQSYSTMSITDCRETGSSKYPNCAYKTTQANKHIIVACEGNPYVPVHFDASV
# B1: PNGase F, Peptide-N4-(acetyl-β-D-glucosaminyl)-asparagine amidase, wild type (D60) (protein)
# chain: APADNTVNIKTFDKVKNAFGDGLSQSAEGTFTFPADVTTVKTIKMFIKNECPNKTCDEWDRYANVYVKNKTTGEWYEIGRFITPYWVGTEKLPRGLEIDVTDFKSLLSGNTELKIYTETWLAKGREYSVDFDIVYGTPDYKYSAVVPVIQYNKSSIDGVPYGKAHTLGLKKNIQLPTNTEKAYLRTTISGWGHAKPYDAGSRGCAEWCFRTHTIAINNANTFQHQLGALGCSANPINNQSPGNWAPDRAGWCPGMAVPTRIDVLNNSLTGSTFSYEYKFQSWTNNGTNGDAFYAISSFVIAKSNTPISAPVVTN
# B2: PNGase F D60A mutant (enzyme)
# chain: B1 chain with D60A
# B3: denatured glycoprotein RNase B (enzyme)
# chain: T1 chain
# modifications: a single N-glycosylation site predominantly occupied by high mannose oligosaccharides; protein denatured
# notes: Recognition by the PNGase F mutants and by Con A goes through the N-linked glycan on the protein; also called denatured RNase B; dRNAse B
# B4: PNGase F D60N mutant (enzyme)
# chain: B1 chain with D60N
# B5: PNGase F D60A/R125A mutant (enzyme)
# chain: B1 chain with D60A, R125A
# B6: PNGase F E206A mutant (enzyme)
# chain: B1 chain with E206A
# B7: PNGase F D60A/E206A mutant (enzyme)
# chain: B1 chain with D60A, E206A
# B8: PNGase F D60A/E206K mutant (enzyme)
# chain: B1 chain with D60A, E206K
# B9: PNGase F D60A/E206Q mutant (enzyme)
# chain: B1 chain with D60A, E206Q
# B10: PNGase F D60A/E206R mutant (enzyme)
# chain: B1 chain with D60A, E206R
# B11: PNGase F D60A/D57A mutant (enzyme)
# chain: B1 chain with D57A, D60A
# Assays:
# [1] = molecular target: denatured glycoprotein RNase B (UniProt P61823); experiment: reference value of Table 7
# [2] = molecular target: T1, denatured glycoprotein RNase B, P61823; experiment: enzyme Km of the wild type, used as reference for the SPR Kd values
# [3] = molecular target: B3; experiment: SPR Kd against wild type Km
# [4] = molecular target: B11; experiment: SPR, denatured RNase B
# PNGase F D60A mutant = molecular target: B2; experiment: SPR, denatured RNase B
# PNGase F D60N mutant = molecular target: B4; experiment: SPR, denatured RNase B
# PNGase F E206A mutant = molecular target: B6; experiment: SPR, denatured RNase B
# [5] = molecular target: B7; experiment: SPR, denatured RNase B
# [6] = molecular target: B8; experiment: SPR, denatured RNase B
# [7] = molecular target: B5; experiment: SPR, denatured RNase B
# [8] = molecular target: B10; experiment: SPR, denatured RNase B
# [9] = molecular target: B9; experiment: SPR, denatured RNase B
molecule,measurement,setting,value
"PNGase F, Peptide-N4-(acetyl-β-D-glucosaminyl)-asparagine amidase, wild type (D60) (from UniProt P21163 41-354) (enzyme)",Relative Enhancement (relative to wild type),[1],1 fold
B1,"Km (printed in the Kd column, footnote a)",[2],6400 µM
B2,Relative Enhancement (relative to wild type),[3],580 fold
B3,Kd,[4],7 µM
same,Kd,PNGase F D60A mutant,11 µM
same,Kd,PNGase F D60N mutant,21 µM
same,Kd,PNGase F E206A mutant,11 µM
same,Kd,[5],20 µM
same,Kd,[6],18 µM
same,Kd,[7],18 µM
same,Kd,[8],27 µM
same,Kd,[9],18 µM
B4,Relative Enhancement (relative to wild type),[3],290 fold
B5,Relative Enhancement (relative to wild type),[3],360 fold
B6,Relative Enhancement (relative to wild type),[3],580 fold
B7,Relative Enhancement (relative to wild type),[3],320 fold
B8,Relative Enhancement (relative to wild type),[3],360 fold
B9,Relative Enhancement (relative to wild type),[3],360 fold
B10,Relative Enhancement (relative to wild type),[3],240 fold
B11,Relative Enhancement (relative to wild type),[3],910 fold
